Results: patent US20140107039

Chain of H3.3K27M peptide (18-37) (chain, as listed by the source): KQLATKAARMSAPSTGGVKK

In the case of “Polycomb Repressive Complex 2 (PRC2), purified through FLAG-tagged human EED from HeLa or HEK293T nuclear extract”, the “Apparent Vmax of PRC2 methyltransferase reaction at varying mononucleosome concentrations” value (H3.3K27M peptide (18-37)) is reported as “showed a reduction in the apparent Vmax by addition of the K27M peptide” and the “Apparent Vmax of PRC2 methyltransferase reaction at varying mononucleosome concentrations” value (H3K27ac peptide (18-37)) is reported as “PRC2 reactions that contained H3K27ac peptide of identical peptide concentrations did not decrease the apparent Vmax of the reaction”.
